Results on two substances are retold here after patent US20180291103A1.

Assay [1] concerns the target PDL1-Fc fusion protein (human PDL1-Fc) (human). As to the kind of experiment: SPR, BIAcore X100; PDL1-Fc on CM5 chip, antibody as analyte, 25 C. Background: Surface plasmon resonance follows binding to a sensor surface in real time, without labels.
The target is the same in assay [2]. As to the kind of experiment: ELISA; OD on PDL1-Fc divided by OD on Fc protein, control group well (row 'blank'). On the technique in general: ELISA stands for enzyme-linked immunosorbent assay.
The target is the same in assay [3]. The assay is described as follows: ELISA; PDL1-Fc coated, control group well (row 'blank'), anti-His detection, 405 nm.
In a further assay the target is Fc protein. As to the kind of experiment: ELISA; Fc protein coated, control group well (row 'blank'), anti-His detection, 405 nm.
Assay [4] addresses Mouse PDL1-Fc protein (mouse). The assay is described as follows: ELISA; mouse PDL1-Fc coated at 0.5 µg/well, control group well (row 'blank'), anti-His detection, 405 nm.

The Kd is a measure of binding affinity in units of concentration. A high value points to weaker binding.

Chain of PDL1-Fc fusion protein (human PDL1-Fc) (human) (chain, as listed by the source limits assumed): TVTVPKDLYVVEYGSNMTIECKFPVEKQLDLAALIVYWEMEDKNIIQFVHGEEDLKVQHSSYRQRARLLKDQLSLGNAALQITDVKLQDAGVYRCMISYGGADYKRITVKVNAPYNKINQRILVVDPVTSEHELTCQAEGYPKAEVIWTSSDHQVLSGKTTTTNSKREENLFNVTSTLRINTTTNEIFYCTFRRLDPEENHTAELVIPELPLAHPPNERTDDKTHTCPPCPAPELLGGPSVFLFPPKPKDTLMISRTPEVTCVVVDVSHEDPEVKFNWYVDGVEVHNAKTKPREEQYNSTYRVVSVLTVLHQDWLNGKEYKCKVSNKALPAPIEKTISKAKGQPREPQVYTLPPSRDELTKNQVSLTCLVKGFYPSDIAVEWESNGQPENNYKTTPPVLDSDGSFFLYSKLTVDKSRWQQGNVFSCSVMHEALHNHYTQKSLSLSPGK
Chain of Mouse PDL1-Fc protein (mouse) (chain, as listed by the source limits assumed): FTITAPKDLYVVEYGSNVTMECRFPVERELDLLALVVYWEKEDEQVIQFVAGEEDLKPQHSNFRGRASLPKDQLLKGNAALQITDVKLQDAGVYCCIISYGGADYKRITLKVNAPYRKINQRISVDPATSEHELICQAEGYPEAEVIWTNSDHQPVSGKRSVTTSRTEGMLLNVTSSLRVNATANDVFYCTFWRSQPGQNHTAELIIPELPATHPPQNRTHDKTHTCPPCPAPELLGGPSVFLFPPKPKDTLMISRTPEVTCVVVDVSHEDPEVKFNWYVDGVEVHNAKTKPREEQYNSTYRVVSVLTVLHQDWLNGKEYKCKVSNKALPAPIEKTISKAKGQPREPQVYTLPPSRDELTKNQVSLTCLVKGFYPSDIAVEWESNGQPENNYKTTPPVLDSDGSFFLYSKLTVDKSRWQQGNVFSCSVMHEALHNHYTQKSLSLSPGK

Take 243.55 (anti-PDL1 antibody of Roche): the Kd in assay [1] amounted to 0.135 nM.
Regarding “control single domain antibody against other unrelated target (control group of the ELISA; table row 'blank') (VHH)”, the OD (PDL1/Fc) in assay [2] worked out at 0.75. Also, the OD (against PDL1) in assay [3] was determined as 0.054 OD. For the same substance, the OD (against Fc) in the assay with Fc protein came out at 0.072 OD. Further, in assay [4], the OD (against mouse PDL1) amounted to 0.096 OD.
